According to US20140050720A1, “ULTRALONG COMPLEMENTARITY DETERMINING REGIONS AND USES THEREOF” (THE SCRIPPS RESEARCH INSTITUTE, priority 2012, published 2014):
Entries after “also recorded” stand apart in the source; their conditions may differ.

What was measured:
Parental U2OS = experiment: Flow cytometry binding to parental cells; conditions: cell culture supernatant containing expressed IgG, anti-Human Fc detection
Experimental: (§1) Briefly, a cell line expressing functionally validated CXCR1 derived from U2OS cells was obtained from DiscoveRx and cultured per manufacturer's instructions (Cat#93-0226C3, DiscoveRx Corporation, Freemont, Calif.). The parental cell line U20S was obtained from ATCC and cultured under the same conditions as the CXCR1 cells. Cell culture supernatants from Example 2 above were then tested for binding to cells by flow cytometry. The adherent U20S or CXCR1-U20S cells were dissociated with Accutase (Innovative Cell Technologies, Inc., San Diego, Calif.), neutralized with an equal volume of media containing 10% serum, centrifuged at 1000 g, and resuspended in PBS with 2% BSA. Next, cells were dispensed into microtiter plates to achieve between 30,000 to 300,000 cells per well, centrifuged again, and resuspended in cell culture supernatant containing expressed IgG, or a dilution of IgG-containing cell culture supernatant. A fluorescent-conjugated anti-Human Fc antibody was used to detect binding of the expressedBLV1H12-IL8 fusion proteins to cells.

CXCR1-U2OS = biological target: T1, CXCR1-U2OS (Homo sapiens, UniProt P25024); experiment: Flow cytometry binding to CXCR1 expressing cells
T1 construct: host or cells: U2OS-derived CXCR1 cell line, purchased
T1 sequence (P25024 1-350): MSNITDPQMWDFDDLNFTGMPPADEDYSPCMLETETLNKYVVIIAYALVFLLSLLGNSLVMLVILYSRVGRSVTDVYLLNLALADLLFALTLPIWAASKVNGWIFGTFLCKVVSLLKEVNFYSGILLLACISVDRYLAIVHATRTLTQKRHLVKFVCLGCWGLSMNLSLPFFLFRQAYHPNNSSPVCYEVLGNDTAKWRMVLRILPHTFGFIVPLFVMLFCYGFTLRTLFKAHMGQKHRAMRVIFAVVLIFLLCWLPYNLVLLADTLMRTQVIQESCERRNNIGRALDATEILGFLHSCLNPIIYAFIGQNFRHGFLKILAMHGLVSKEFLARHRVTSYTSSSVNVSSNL
Experimental: as §1

Human mPB CD34+ cells = experiment: Proliferative activity on human granulocyte progenitors (flow cytometry); type: cell-based; conditions: 7 days
Experimental: Human mPB CD34^+ cells were purchased from AllCells. Cells were resuspended in HSC expansion medium (StemSpan SFEM, StemCell Technologies) supplemented with 1× antibiotics and the following recombinant human cytokines thrombopoietin, IL6, Flt3 ligand, and stem cell factor (100 ng/mL, R & D Systems), then plated in 96-well plates (1000 cells per well), with varied concentrations of BLV1H12-bGCSF fusion antibodies. Cells were cultured for 7 days at 37° C. in a 5% CO2 incubator, then analyzed by flow cytometry to measure cell number and expression of CD45ra and CD41. Cells were stained in staining medium (HBSS supplemented with 2% FBS and 2 mM EDTA) at 4° C. for 1 h with PECy7 anti-CD45ra and eFluor 450 anti-CD41 (eBiosciences), then washed with staining medium and analyzed. Multicolor analysis for cell phenotyping was performed on a LSR II flow cytometer (Becton Dickinson). FIGS. 10A-10E and Tables 9-10 show the human granulocyte progenitor cell proliferative activities of the Ab-GCSF fusion antibodies.

mice neutrophils = experiment: Neutrophils counts in mice; type: in vivo; conditions: mice blood, 10th day post-injection, neutrophils among white blood cells
Experimental: On the 10th day after injection of BLV1H12-bGCSF fusion antibodies into mice for PK study, blood samples were drawn from the mice and stained using the Diff Quick Staining Kit (Thermo Fisher Scientific, IL). Neutrophils and white blood cells were counted under microscope and the percentages of neutrophils were analyzed. FIGS. 12A-12B and Table 12 show proliferative activities of BLV1H12-bGCSF fusion antibodies on mice neutrophils that are blood stained and counted at the 10th day post-injection.

Mouse NFS-60 cells = experiment: Proliferation assay on mouse NFS-60 cells (AlamarBlue); type: cell-based; conditions: 72 hours
Experimental: Mouse NFS-60 cells were obtained from American Type Culture Collection (ATCC), VA, and cultured in RPMI-1640 medium supplemented with 10% fetal bovine serum (FBS), 0.05 mM 2-mercapoethanol and 62 ng/ml human macrophage colony stimulating factor (M-CSF). For proliferation assay, mouse NFS-60 cells were washed three times with RPMI-1640 medium and resuspended in RPMI-1640 medium with 10% FBS and 0.05 mM 2-mercapoethanol at a density of 1.5×10^5 cells/ml. In 96-well plates, 100 μl of cell suspension was added into each well, followed by the addition of varied concentrations of bGCSF, BLV1H12 antibody, and the immunoglobulin constructs described herein, Equal volume of PBS buffer was added into the control wells. The plates were incubated at 37° C. in a 5% CO2 incubator for 72 hours. Cells were then treated with AlamarBlue (Invitrogen) ( 1/10 volume of cell suspension) for 4 hours at 37° C. Fluorescence at 595 nm for each well was read to indicate the cell viability.

[1] = Pharmacokinetics of BLV1H12-bGCSF fusion antibodies in mice; type: in vivo; conditions: BALB/c mice, 70 μg injected
Experimental: For PK study in mice, 70 μg of the immunoglobulin constructs described herein were injected into 3 BALB/c mice per group. Blood samples were drawn from time 0 to 14 days with extended intervals and analyzed by ELISA using anti-human IgG Fc antibody with horseradish peroxidase (HRP) labeled (KPL) and anti-6×His antibody with HRP labeled (Clontech). Data were normalized by taking maximal concentration at the first time point (30 min).

[2] = system: NS2-3 non-structural proteins of BVDV; experiment: Immunocytometric analysis of HEK 293A cells transfected with BVDV antigens; type: binding; conditions: 10 μg/ml antibody
Experimental: Additionally, binding of the chimeric recombinant antibodies to BVDV antigens was evaluated by immunocytometric analysis of transfected human embryonic kidney (HEK) 293A cells (Invitrogen), as previously described (see, e.g., Njongmeta et al. (2012) Vaccine 30:1624-1635). Briefly, HEK 293A monolayers grown in 6-well tissue culture plates were transfected with 2 μg/well of plasmid (pcDNA3.3, Invitrogen) encoding BVDV antigens (N^pro, E2, or non-structural proteins NS2-3) using Lipofectamine 2000 reagent (Invitrogen), and incubated for 48 hr at 37° C. with 5% CO2. The monolayers were fixed with ice-cold 100% methanol for 10 minutes, rinsed with PBS, and after blocking for 1 hr with PBS containing 5% fetal bovine serum (blocking buffer), the monolayers were incubated at room temperature for 1 hr with 10 μg/ml of a mouse anti-FLAG M2-alkaline phosphatase (AP)-conjugate (Sigma) in blocking buffer or 10 μg/ml of the chimeric recombinant antibodies (H12 or B8). […] Following washes in blocking buffer, the AP activity in all the wells was detected using Fast Red AS-MX substrate (Sigma). […]

B1: BLV1H12-IL8: human IL-8 (amino acids 26-99) replacing the knob domain of BLV1H12; heavy chain variable region SEQ ID NO: 38 (antibody)
VH: QVQLRESGPSLVKPSQTLSLTCTASGFSLSDKAVGWVRQAPGKALEWLGSIDTGGNTGYNPGLKSRLSITKDNSKSQVSLSVSSVTTEDSATYYCTSVHQETKKYQSPRSAKELRCQCIKTYSKPFHPKFIKELRVIESGPHCANTEIIVKLSDGRELCLDPKENWVQRVVEKFLKRAENSGSGSYTYNYEWHVDVWGQGLLVTV
light: QAVLNQPSSVSGSLGQRVSITCSGSSSNVGNGYVSWYQLIPGSAPRTLIYGDTSRASGVPDRFSGSRSGNTATLTISSLQAEDEADYFCASAEDSSSNAVFGSGTTLTVLGQPKSPPSVTLFPPSTEELNGNKATLVCLISDFYPGSVTVVWKADGSTITRNVETTRASKQSNSKYAASSYLSLTSSDWKSKGSYSCEVTHEGSTVTKTVKPSECS
Parental U2OS
  Median Arbitrary Fluorescence Units (AFU): 76 AFU
CXCR1-U2OS
  ratio of median fluorescence (IgG binding) of CXCR1-U2OS cells versus U2OS parental cells: has specificity for CXCR1
CXCR1-U2OS; CXCR1-U2OS cells, cell culture supernatant containing expressed IgG, anti-Human Fc detection
  Median Arbitrary Fluorescence Units (AFU): 707 AFU

B2: bGCSF: bovine G-CSF (granulocyte colony-stimulating factor) (protein, listed as Bos taurus)
chain: TPLGPARSLPQSFLLKCLEQVRKIQADGAELQERLCAAHKLCHPEELMLLRHSLGIPQAPLSSCSSQSLQLTSCLNQLHGGLFLYQGLLQALAGISPELAPTLDTLQLDVTDFATNIWLQMEDLGAAPAVQPTQGAMPTFTSAFQRRAGGVLVASQLHRFLELAYRGLRYLAEP
modifications: bGCSF
Human mPB CD34+ cells; 0.55886 ng/mL
  Number of CD45RA− CD41−: 7354
Human mPB CD34+ cells; 1.67657 ng/mL
  Number of CD45RA− CD41−: 9776
Human mPB CD34+ cells; 5.02972 ng/mL
  Number of CD45RA− CD41−: 12700
Human mPB CD34+ cells; 15.08916 ng/mL
  Number of CD45RA− CD41−: 13200
Human mPB CD34+ cells; 45.26749 ng/mL
  Number of CD45RA− CD41−: 13700
Human mPB CD34+ cells; 135.80247 ng/mL
  Number of CD45RA− CD41−: 13300
Human mPB CD34+ cells; 407.40741 ng/mL
  Number of CD45RA− CD41−: 13700
Human mPB CD34+ cells; 1222.22222 ng/mL
  Number of CD45RA− CD41−: 14100
Human mPB CD34+ cells; 3666.66667 ng/mL
  Number of CD45RA− CD41−: 13100
Human mPB CD34+ cells; 11000 ng/mL
  Number of CD45RA− CD41−: 13800
Mice neutrophils
  Percentage of Neutrophil: 16.48
Mouse NFS-60 cells; 0.09145 ng/mL
  F.I. (AlamarBlue fluorescence at 595 nm, cell viability): 1214
Mouse NFS-60 cells; 0.27435 ng/mL
  F.I. (AlamarBlue fluorescence at 595 nm, cell viability): 1360.925
Mouse NFS-60 cells; 0.82305 ng/mL
  F.I. (AlamarBlue fluorescence at 595 nm, cell viability): 1761
Mouse NFS-60 cells; 2.46914 ng/mL
  F.I. (AlamarBlue fluorescence at 595 nm, cell viability): 2101
Mouse NFS-60 cells; 7.40741 ng/mL
  F.I. (AlamarBlue fluorescence at 595 nm, cell viability): 2405
Mouse NFS-60 cells; 22.22222 ng/mL
  F.I. (AlamarBlue fluorescence at 595 nm, cell viability): 2646
Mouse NFS-60 cells; 66.66667 ng/mL
  F.I. (AlamarBlue fluorescence at 595 nm, cell viability): 2812.098
Mouse NFS-60 cells; 200 ng/mL
  F.I. (AlamarBlue fluorescence at 595 nm, cell viability): 3087.144
[1]; 0.5 hour
  Percentage (normalized to maximal concentration at the first time point, 30 min): 100.00%
[1]; 1 hour
  Percentage (normalized to maximal concentration at the first time point, 30 min): 79.52%
[1]; 3 hour
  Percentage (normalized to maximal concentration at the first time point, 30 min): 56.81%
[1]; 6 hour
  Percentage (normalized to maximal concentration at the first time point, 30 min): 14.94%
[1]; 24 hour
  Percentage (normalized to maximal concentration at the first time point, 30 min): 4.08%
[1]; 48 hour
  Percentage (normalized to maximal concentration at the first time point, 30 min): 0.00%
[1]; 72 hour
  Percentage (normalized to maximal concentration at the first time point, 30 min): 0.00%

B3: hGCSF: human G-CSF (protein, UniProt P09919 31-207, looked up)
Granulocyte …: TPLGPASSLPQSFLLKCLEQVRKIQGDGAALQEKLVSECATYKLCHPEELVLLGHSLGIPWAPLSSCPSQALQLAGCLSQLHSGLFLYQGLLQALEGISPELGPTLDTLQLDVADFATTIWQQMEELGMAPALQPTQGAMPAFASAFQRRAGGVLVASHLQSFLEVSYRVLRHLAQP
Human mPB CD34+ cells; 0.05081 ng/mL
  Number of CD45RA− CD41−: 4175
Human mPB CD34+ cells; 0.15242 ng/mL
  Number of CD45RA− CD41−: 3651
Human mPB CD34+ cells; 0.45725 ng/mL
  Number of CD45RA− CD41−: 3671
Human mPB CD34+ cells; 1.37174 ng/mL
  Number of CD45RA− CD41−: 4299
Human mPB CD34+ cells; 4.11523 ng/mL
  Number of CD45RA− CD41−: 5900
Human mPB CD34+ cells; 12.34568 ng/mL
  Number of CD45RA− CD41−: 7784
Human mPB CD34+ cells; 37.03704 ng/mL
  Number of CD45RA− CD41−: 10500
Human mPB CD34+ cells; 111.11111 ng/mL
  Number of CD45RA− CD41−: 12200
Human mPB CD34+ cells; 333.33333 ng/mL
  Number of CD45RA− CD41−: 14100
Human mPB CD34+ cells; 1000 ng/mL
  Number of CD45RA− CD41−: 13900
Mouse NFS-60 cells; 0.09145 ng/mL
  F.I. (AlamarBlue fluorescence at 595 nm, cell viability): 1266.554
Mouse NFS-60 cells; 0.27435 ng/mL
  F.I. (AlamarBlue fluorescence at 595 nm, cell viability): 1478.287
Mouse NFS-60 cells; 0.82305 ng/mL
  F.I. (AlamarBlue fluorescence at 595 nm, cell viability): 1752.216
Mouse NFS-60 cells; 2.46914 ng/mL
  F.I. (AlamarBlue fluorescence at 595 nm, cell viability): 2224.028
Mouse NFS-60 cells; 7.40741 ng/mL
  F.I. (AlamarBlue fluorescence at 595 nm, cell viability): 2587.222
Mouse NFS-60 cells; 22.22222 ng/mL
  F.I. (AlamarBlue fluorescence at 595 nm, cell viability): 2751.249
Mouse NFS-60 cells; 66.66667 ng/mL
  F.I. (AlamarBlue fluorescence at 595 nm, cell viability): 2815.37
Mouse NFS-60 cells; 200 ng/mL
  F.I. (AlamarBlue fluorescence at 595 nm, cell viability): 2948.509

B4: H12 (protein, listed as Bos taurus)
chain: CVIVHQKTTQQSSCPAGFRDCVACTPGPESCCRSGCDGARRRVGLRYFFDSTSPITTYTYEHHIDAW
modifications: H12
[2]; HEK293A cells transfected with the NS2-3 non-structural proteins of BVDV
  binding to HEK293A cells transfected with NS2-3: binds NS2-3 on cells; also recorded: strongly binds
[2]; untransfected HEK293A cells
  binding to untransfected cells: weakly bound
